Values quoted from earlier work as cited in publication PMC8070256, “Feasibility of Developing Radiotracers for MDM2: Synthesis and Preliminary Evaluation of an ^18F-Labeled Analogue of the MDM2 Inhibitor SP-141” (Pharmaceuticals, 2021).

Biological target: MDM2 (Homo sapiens) (UniProt Q00987)
Sequence (Q00987 whole entry): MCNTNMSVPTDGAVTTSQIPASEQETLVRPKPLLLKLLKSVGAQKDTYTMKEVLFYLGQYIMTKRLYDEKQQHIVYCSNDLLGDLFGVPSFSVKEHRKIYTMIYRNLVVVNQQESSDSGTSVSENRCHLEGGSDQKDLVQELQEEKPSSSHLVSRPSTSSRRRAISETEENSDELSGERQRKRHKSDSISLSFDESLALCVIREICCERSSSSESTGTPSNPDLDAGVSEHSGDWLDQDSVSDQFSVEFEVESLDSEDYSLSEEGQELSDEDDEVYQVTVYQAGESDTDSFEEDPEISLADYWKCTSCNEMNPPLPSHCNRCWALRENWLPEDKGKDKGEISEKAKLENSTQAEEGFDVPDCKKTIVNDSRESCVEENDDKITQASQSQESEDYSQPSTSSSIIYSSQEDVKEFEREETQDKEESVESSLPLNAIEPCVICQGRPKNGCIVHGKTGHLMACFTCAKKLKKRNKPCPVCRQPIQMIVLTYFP

p53 peptide (from UniProt P04637)
Ki: 1100 nM
